Laboratory results reported in patent US12637502B2, “Netrin G1 polypeptides” (Institute For Cancer Research, priority 2019, dated 2026).

Legend:
CAFs [1] = experiment: Cytokine secretion by CAFs treated with sNG1 or NetG1 peptides (ELISA); format: cell-based; conditions: CAFs treated 7 days, media conditioned 2 days, vs CON
Protocol: 1.6×10^5 Control (CON) or NetrinG1 Ligand knockdown (NGL1 KD) CAFs were plated into 24 well plates and allowed to produce matrices in the presence of 50 μg/mL of ascorbic acid and were either untreated or treated with either soluble NetrinG1 (sNG1), NetG1 peptide corresponding to a domain known to engage with NGL1 (NPYMSNNE; SEQ ID NO:26; (FITC)—Ba-Asn-Pro-Tyr-Met-Ser-Asn-Asn-Glu-(NH2)), hypothesized to modestly prevent NetG1/NGL1 interaction (peptide), or a modified NetG1 peptide (NPTMSNNE; SEQ ID NO:27; (FITC)—Ba-Asn-Pro-Thr-Met-Ser-Asn-Asn-Glu-(NH2)) suspected to strongly prevent NetG1/NGL1 engagement (mutant), for 7 days. […] The media was then replaced with serum- and glutamine-free media and CAFs were allowed to condition the media for 2 days. Conditioned media was collected from each well and subjected to ELISA for the measurement of cytokine (TGF-β, IL-6, and IL-8) secretion. […] 01, *** p<. 001, **** p<. 0001. N=3-6.

CAFs [2] = experiment: EV production by CAFs treated with recombinant NGL1; format: cell-based
virus infected neurons = experiment: Synapse-dependent viral transmission between neurons; format: cell-based; conditions: neurons only, FIG. 3A/3C
Protocol: (§1) Viral transmission was used as a test to investigate the formation of functional synapses. […] The same experiment, as in Panel A, was conducted, except that virus (red) infected neurons (green) were plated onto a CAF culture bed (evident in transmitted microscopy images shown in bottom panels) to assess heterotypic neuron-CAF functional synapse formation (evidence by red virus spread into CAFs) while untreated (left) or treated with recombinant NGL1 (middle) or NetG1 (right) (Panel B).

CAFs [3] = experiment: CAF blebbing under 3D conditions; format: cell-based, human
Source text: The phenotype is believed to indicate fibroblastic function after NGL1 engagement from other cells (like tumor cells). Similar effects were observed when cancer cells were co-cultured with CAFs using CAF-derived matrices as culturing scaffolds.

PDAC cancer cells = experiment: Rescue of starvation-induced death of PDAC cancer cells by CAF-produced EVs; format: cell-based
Source text: PDAC cells die in the absence of nutrition but can be rescued using EVs secreted by intact CAFs. If CAFs are deficient in NetG1 expression, the resultant EVs fail to rescue PDAC cells from starvation. […] The pharmaceutical agents set forth herein will prevent the NetG1/NGL1 engagement and, thus, serve as therapeutics that will assure PDAC cells will not survive under nutritional stress as in vivo.

[4] = test system: virus infected neurons plated onto a CAF culture bed; experiment: Heterotypic neuron-CAF functional synapse formation (virus spread into CAFs); format: cell-based; conditions: FIG. 3B/3D
Protocol: as §1

CAF EVs = experiment: Clustering of CAF-secreted EVs treated after collection; conditions: CAF EVs incubated with the agent following their collection
[5] = test system: T cells from murine spleens; experiment: T cell activation with CD3/CD28; format: cell-based; conditions: recombinant NetG1 present during activation

For “NPTMSNNE (NetG1 polypeptide) [SEQ ID NO:27]”, the “secreted IL-6” value (CAFs [1]) was “significant decreases”, the “secreted IL-8” value (CAFs [1]) was “significant decreases” and the “secreted TGF-β” value (CAFs [1]) was “significant decreases”.

“NPYMSNNE (NetG1 polypeptide) [SEQ ID NO:26, NetG1 peptide corresponding to a domain known to engage with NGL1]” was tested, and the “secreted IL-6” value (CAFs [1]) was “significant decreases”, the “secreted IL-8” value (CAFs [1]) was “significant decreases” and the “secreted TGF-β” value (CAFs [1]) was “significant decreases”.

B1: recombinant NGL1: recombinant Netrin G1 ligand (NGL1) protein added to EVs or cell cultures (protein)
chain: QTCPSVCSCSNQFSKVICVRKNLREVPDGISTNTRLLNLHENQIQIIKVNSFKHLRHLEILQLSRNHIRTIEIGAFNGLANLNTLELFDNRLTTIPNGAFVYLSKLKELWLRNNPIESIPSYAFNRIPSLRRLDLGELKRLSYISEGAFEGLSNLRYLNLAMCNLREIPNLTPLIKLDELDLSGNHLSAIRPGSFQGLMHLQKLWMIQSQIQVIERNAFDNLQSLVEINLAHNNLTLLPHDLFTPLHHLERIHLHHNPWNCNCDILWLSWWIKDMAPSNTACCARCNTPPNLKGRYIGELDQNYFTCYAPVIVEPPADLNVTEGMAAELKCRASTSLTSVSWITPNGTVMTHGAYKVRIAVLSDGTLNFTNVTVQDTGMYTCMVSNSVGNTTASATLNVTAATTTPFSYFSTVTVETMEPSQDEARTTDNNVGPTPVVDWETTNVTTSLTPQSTRSTEKTFTIPVTDINSGIPGIDEVMKTTKIIIGCFVAITLMAAVMLVIFYKMRKQHHRQNHHAPTRTVEIINVDDEITGDTPMESHLPMPAIEHEHLNHYNSYKSPFNHTTTVNTINSIHSSVHEPLLIRMNSKDNVQETQI
In the case of B1, the “clustering of EVs produced by treated CAFs” value (CAFs [2]) is reported as “induced some clustering”, the “number of EVs produced” value (CAFs [2]) is reported as “production of increased numbers of EVs” and the “virus transmission via functional synapses between neurons” value (virus infected neurons) is reported as “limited virus transmission”. The “CAF blebbing (membrane ruffling or protruding)” value (CAFs [3]; 3D conditions that enable NetrinG1 expression in CAFs) was “induced CAF blebbing”, the “CAF blebbing in NetG1 KO CAFs” value (CAFs [3]; same treatment, NetG1 KO CAFs) was “blebbing was not observed” and the “effectiveness of CAF-produced EVs in rescuing starvation-induced death of PDAC cancer cells” value (PDAC cancer cells; EVs pre-incubated with recombinant NGL1) was “tends to decrease”. For the same molecule, the “functional synapses between neurons and fibroblasts (virus spread into CAFs)” value [4] was “prevented” and the EV clustering (CAF EVs) was “enables small NetG1 positive (i.e., exomeres)”.

B2: recombinant NetG1: recombinant Netrin G1 protein added to EVs or cell cultures (protein)
chain: HYDLCKTQIYTEEGKVWDYMACQPESTDMTKYLKVKLDPPDITCGDPPETFCAMGNPYMCNNECDASTPELAHPPELMFDFEGRHPSTFWQSATWKEYPKPLQVNITLSWSKTIELTDNIVITFESGRPDQMILEKSLDYGRTWQPYQYYATDCLDAFHMDPKSVKDLSQHTVLEIICTEEYSTGYTTNSKIIHFEIKDRFAFFAGPRLRNMASLYGQLDTTKKLRDFFTVTDLRIRLLRPAVGEIFVDELHLARYFYAISDIKVRGRCKCNLHATVCVYDNSKLTCECEHNTTGPDCGKCKKNYQGRPWSPGSYLPIPKGTANTCIPSISSIGNCECFGHSNRCSYIDLLNTVICVSCKHNTRGQHCELCRLGYFRNASAQLDDENVCIECYCNPLGSIHDRCNGSGFCECKTGTTGPKCDECLPGNSWHYGCQPNVCDNELLHCQNGGTCHNNVRCLCPAAYTGILCEKLRCEEAGSCGS
With B2 the “T cell activation (proliferation) by CD3/CD28” value [5] was “activation is prevented”, the “virus transmission via functional synapses between neurons” value (virus infected neurons) was “limited virus transmission” and the “effectiveness of EVs from NetG1 deficient CAFs (NG1KO) in rescuing starvation-induced death of PDAC cancer cells” value (PDAC cancer cells; recombinant NetG1 treatment of KRAS-transformed pancreatic cells) was “improves the effectiveness of EVs”. For the same molecule, the “functional synapses between neurons and fibroblasts (virus spread into CAFs)” value [4] was “prevented” and the EV clustering (CAF EVs) was “only clusters exosomes”.
